The values that follow come from the supplement of paper PMC9112550, “Optimization of the antimicrobial peptide Bac7 by deep mutational scanning” (BMC Biology, 2022).

The data set concerns Escherichia coli TOP10. The data set can be described thus: shrunken log2 fold change of peptide-encoding DNA abundance (4.5 h post-induction vs induction); higher = less antimicrobial activity (less host growth inhibition). Particulars: time post-induction: 4.5 h; library: site-saturation at positions 5, 18, 19, 20.
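Also: peptides expressed intracellularly from a pBAD plasmid library in pooled LB shake-flask culture, induced with 0.3% L-arabinose, DNA abundance read by NGS, three biological replicates, DESeq2 with apeglm shrinkage.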

Regarding RRIRARPPRLPRPRPRPEDRPRP, the “shrunken log2 fold change” value was 0.381. RRIRERPPRLPRPRPRPHVMPRP: the “shrunken log2 fold change” value is -0.957. For RRIRCRPPRLPRPRPRPFDWPRP the value was -0.0737; for RRIRFRPPRLPRPRPRPPLFPRP, 0.273; for RRIRDRPPRLPRPRPRPDIIPRP, 0.221. For RRIRFRPPRLPRPRPRPAKTPRP the value was -0.0138; for RRIRARPPRLPRPRPRPYHWPRP, -0.0767. As to RRIRERPPRLPRPRPRPFMLPRP, the “shrunken log2 fold change” value was -0.511. For RRIRDRPPRLPRPRPRPEIDPRP the value was 0.0535. Consider RRIRMRPPRLPRPRPRPWAQPRP, for which the “shrunken log2 fold change” value is 0.35. The same measure for RRIRSRPPRLPRPRPRPITPPRP: 0.0356. The same measure for RRIRNRPPRLPRPRPRPKWVPRP: 0.132; for RRIRMRPPRLPRPRPRPMGEPRP: 0.792. As to RRIRLRPPRLPRPRPRPGWPPRP, the “shrunken log2 fold change” value amounted to 0.406. For RRIRERPPRLPRPRPRPTSAPRP, the “shrunken log2 fold change” value is 0.153. For RRIRDRPPRLPRPRPRPSTAPRP the value was 0.314. The same measure for RRIRCRPPRLPRPRPRPNTFPRP: -0.664; for RRIRQRPPRLPRPRPRPMFKPRP: -0.572. For RRIRERPPRLPRPRPRPVSPPRP, the “shrunken log2 fold change” value is -0.33. With RRIRKRPPRLPRPRPRPHHLPRP, the “shrunken log2 fold change” value is -0.232. Take RRIRFRPPRLPRPRPRPLIMPRP: the “shrunken log2 fold change” value is -0.352.

RRIRTRPPRLPRPRPRPWERPRP: the “shrunken log2 fold change” value is -0.0102. The same measure for RRIRWRPPRLPRPRPRPGCVPRP: 0.607. Regarding RRIRVRPPRLPRPRPRPTTMPRP, the “shrunken log2 fold change” value worked out at 0.00526. For RRIRGRPPRLPRPRPRPSCAPRP, the “shrunken log2 fold change” value was found to be 1.08. The same measure for RRIRYRPPRLPRPRPRPRWQPRP: 0.033.

Turning to RRIRSRPPRLPRPRPRPPCNPRP, the “shrunken log2 fold change” value is -0.21. As to RRIRGRPPRLPRPRPRPNHLPRP, the “shrunken log2 fold change” value is -0.226. The same measure for RRIRPRPPRLPRPRPRPQPIPRP: 0.0388; for RRIRVRPPRLPRPRPRPRTRPRP: 0.339. The same measure for RRIRSRPPRLPRPRPRPDLEPRP: -0.0903; for RRIRSRPPRLPRPRPRPIIGPRP: -0.276; for RRIRQRPPRLPRPRPRPYQPPRP: -0.0272. Consider RRIRIRPPRLPRPRPRPILYPRP, for which the “shrunken log2 fold change” value is -0.357. The same measure for RRIRYRPPRLPRPRPRPIYRPRP: -0.641. The same measure for RRIRSRPPRLPRPRPRPAWMPRP: -0.263; for RRIRLRPPRLPRPRPRPCHIPRP: -0.113; for RRIRTRPPRLPRPRPRPEHIPRP: -0.223. The same measure for RRIRLRPPRLPRPRPRPPFPPRP: 0.455; for RRIRPRPPRLPRPRPRPMQYPRP: -0.0088. In the case of RRIRPRPPRLPRPRPRPLPFPRP, the “shrunken log2 fold change” value was -0.75.

As to RRIRPRPPRLPRPRPRPFWEPRP, the “shrunken log2 fold change” value was -0.0196. Regarding RRIRERPPRLPRPRPRPWDHPRP, the “shrunken log2 fold change” value is -0.204. Turning to RRIRARPPRLPRPRPRPHYNPRP, the “shrunken log2 fold change” value is -0.467. For RRIRIRPPRLPRPRPRPLQVPRP, the “shrunken log2 fold change” value was -2. For the sequence RRIRTRPPRLPRPRPRPMKFPRP, the “shrunken log2 fold change” value is -0.116. The same measure for RRIRVRPPRLPRPRPRPGGWPRP: 0.72. The same measure for RRIRTRPPRLPRPRPRPLWWPRP: 0.546. For RRIRVRPPRLPRPRPRPCWYPRP the value was -0.544; for RRIRPRPPRLPRPRPRPDDVPRP, -0.0212. With RRIRHRPPRLPRPRPRPAKEPRP, the “shrunken log2 fold change” value is 0.0203.

Regarding RRIRTRPPRLPRPRPRPCRWPRP, the “shrunken log2 fold change” value is -0.00822.

As to RRIRFRPPRLPRPRPRPTSCPRP, the “shrunken log2 fold change” value was -0.0685. The same measure for RRIRIRPPRLPRPRPRPSYIPRP: -1.04; for RRIRQRPPRLPRPRPRPYHLPRP: -0.00174. For RRIRPRPPRLPRPRPRPTKGPRP, the “shrunken log2 fold change” value was determined as 0.0911. As to RRIRGRPPRLPRPRPRPNHGPRP, the “shrunken log2 fold change” value was -0.178.

Take RRIRSRPPRLPRPRPRPRPYPRP: the “shrunken log2 fold change” value was -0.244. For RRIRMRPPRLPRPRPRPGFMPRP, the “shrunken log2 fold change” value was 0.0795. On to RRIRIRPPRLPRPRPRPHYEPRP, for which the “shrunken log2 fold change” value was -0.618.

For the sequence RRIRDRPPRLPRPRPRPMVWPRP, the “shrunken log2 fold change” value was found to be 0.851. The same measure for RRIRIRPPRLPRPRPRPQWQPRP: -0.182. The same measure for RRIRERPPRLPRPRPRPHGDPRP: -0.0135. As to RRIRNRPPRLPRPRPRPTCDPRP, the “shrunken log2 fold change” value came to 0.0801.

For the sequence RRIRFRPPRLPRPRPRPFPSPRP, the “shrunken log2 fold change” value was -0.179. Turning to RRIRQRPPRLPRPRPRPSWHPRP, the “shrunken log2 fold change” value is -0.155. Take RRIRWRPPRLPRPRPRPWQMPRP: the “shrunken log2 fold change” value is 0.0308. RRIRHRPPRLPRPRPRPALYPRP: the “shrunken log2 fold change” value was -0.033. As to RRIRERPPRLPRPRPRPCTMPRP, the “shrunken log2 fold change” value was determined as 0.018. For RRIRWRPPRLPRPRPRPEIPPRP the value was -0.142; for RRIRKRPPRLPRPRPRPDAKPRP, 0.165. The same measure for RRIRTRPPRLPRPRPRPESSPRP: -0.0341; for RRIRWRPPRLPRPRPRPRIFPRP: 0.499. RRIRGRPPRLPRPRPRPQIWPRP: the “shrunken log2 fold change” value came to 0.293. For the sequence RRIRKRPPRLPRPRPRPPYGPRP, the “shrunken log2 fold change” value was 0.156. For RRIRNRPPRLPRPRPRPVGHPRP the value was -0.128; for RRIRPRPPRLPRPRPRPMHVPRP, 0.038; for RRIRNRPPRLPRPRPRPGHVPRP, -0.0552. The same measure for RRIRIRPPRLPRPRPRPNCHPRP: -0.232; for RRIRCRPPRLPRPRPRPIWYPRP: -0.564. Consider RRIRHRPPRLPRPRPRPMSIPRP, for which the “shrunken log2 fold change” value is -0.0719. With RRIRDRPPRLPRPRPRPVVVPRP, the “shrunken log2 fold change” value came out at 0.328. For RRIRHRPPRLPRPRPRPIHSPRP, the “shrunken log2 fold change” value is 0.0202.

Take RRIRMRPPRLPRPRPRPIWCPRP: the “shrunken log2 fold change” value is -0.234. The same measure for RRIRDRPPRLPRPRPRPGALPRP: 0.191.

For the sequence RRIRVRPPRLPRPRPRPPLFPRP, the “shrunken log2 fold change” value is 0.256. In the case of RRIRARPPRLPRPRPRPYVDPRP, the “shrunken log2 fold change” value was -0.16. In the case of RRIRNRPPRLPRPRPRPEHDPRP, the “shrunken log2 fold change” value was 0.0627. For RRIRFRPPRLPRPRPRPTRAPRP, the “shrunken log2 fold change” value worked out at 0.825.

For the sequence RRIRWRPPRLPRPRPRPCLGPRP, the “shrunken log2 fold change” value came to 0.0309. The same measure for RRIRDRPPRLPRPRPRPDPSPRP: -0.0385.

For RRIRIRPPRLPRPRPRPFINPRP, the “shrunken log2 fold change” value is -0.365.

With RRIRDRPPRLPRPRPRPLANPRP, the “shrunken log2 fold change” value came to 0.861. The same measure for RRIRCRPPRLPRPRPRPSTNPRP: -0.911; for RRIRVRPPRLPRPRPRPYPDPRP: -0.293.

With RRIRGRPPRLPRPRPRPFWWPRP, the “shrunken log2 fold change” value came to 0.806. RRIRTRPPRLPRPRPRPVGCPRP: the “shrunken log2 fold change” value amounted to 0.304. The same measure for RRIRGRPPRLPRPRPRPKMHPRP: 0.769; for RRIRMRPPRLPRPRPRPEDVPRP: -0.0102.

Turning to RRIRERPPRLPRPRPRPTAGPRP, the “shrunken log2 fold change” value amounted to 0.161. As for RRIRMRPPRLPRPRPRPVLQPRP, the “shrunken log2 fold change” value was 0.259. The same measure for RRIRGRPPRLPRPRPRPDALPRP: 0.889; for RRIRPRPPRLPRPRPRPTDFPRP: -0.193; for RRIRLRPPRLPRPRPRPSWWPRP: 1.77. The same measure for RRIRWRPPRLPRPRPRPSNCPRP: -0.0121; for RRIRERPPRLPRPRPRPLMRPRP: 0.839. For RRIRDRPPRLPRPRPRPNQTPRP the value was 0.0331; for RRIRHRPPRLPRPRPRPWKYPRP, -0.253; for RRIRPRPPRLPRPRPRPTKWPRP, 0.187. As for RRIRVRPPRLPRPRPRPWQVPRP, the “shrunken log2 fold change” value is -0.161. RRIRIRPPRLPRPRPRPMFQPRP: the “shrunken log2 fold change” value is 0.0263. For RRIRHRPPRLPRPRPRPIMNPRP the value was -1.05; for RRIRMRPPRLPRPRPRPFACPRP, -0.1; for RRIRFRPPRLPRPRPRPLSKPRP, 0.72. The same measure for RRIRERPPRLPRPRPRPPIIPRP: -0.562; for RRIRQRPPRLPRPRPRPWPLPRP: -0.0625. Take RRIRIRPPRLPRPRPRPRMKPRP: the “shrunken log2 fold change” value is -0.0587. As to RRIRPRPPRLPRPRPRPDDFPRP, the “shrunken log2 fold change” value was -0.371. Consider RRIRMRPPRLPRPRPRPRRTPRP, for which the “shrunken log2 fold change” value amounted to 1.76.

As for RRIRPRPPRLPRPRPRPAFLPRP, the “shrunken log2 fold change” value is -0.0283.

With RRIRRRPPRLPRPRPRPMCHPRP, the “shrunken log2 fold change” value was -0.191. RRIRTRPPRLPRPRPRPHGQPRP: the “shrunken log2 fold change” value is -0.0788.

With RRIRLRPPRLPRPRPRPWDAPRP, the “shrunken log2 fold change” value stood at 0.135.

As to RRIRDRPPRLPRPRPRPVPTPRP, the “shrunken log2 fold change” value came out at 0.247. For RRIRARPPRLPRPRPRPGSEPRP the value was 0.0951.
